# Patent publication US20120294802A1 (ALDERBIO, published 2012)
# T1: human Calcitonin Gene Related Peptide alpha (Homo sapiens, C-terminal amide (-NH2 printed after the last residue F; the filing words it as 'the N-terminal phenylalanine is amidated'); 125I radiolabeled in the receptor binding assay of Example 6)
# T1 construct: 37-residue peptide bought from American Peptides and Bachem; Coated directly on plates in the ELISA of the recombinant antibodies; also called CGRPα; CGRP-alpha
# T1 peptide: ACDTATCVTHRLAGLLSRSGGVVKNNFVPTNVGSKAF
# B1: Antibody Ab1 (antibody, human IgG1, kappa, N297A, V domains shown)
# VH: QSLEESGGRLVTPGTPLTLTCTVSGLDLSSYYMQWVRQAPGKGLEWIGVIGINDNTYYASWAKGRFTISRASSTTVDLKMTSLTTEDTATYFCARGDIWGPGTLVTVSS
# VL: QVLTQTASPVSAAVGSTVTINCQASQSVYDNNYLAWYQQKPGQPPKQLIYSTSTLASGVSSRFKGSGSGTQFTLTISDLECADAATYYCLGSYDCSSGDCFVFGGGTEVVVKR
# notes: Chimeric anti-CGRP antibody (rabbit variable regions, human gamma-1 and kappa constant regions), full length
# B2: Antibody Ab4 (antibody, human IgG1, kappa, N297A, V domains shown)
# VH: QSLEESGGRLVTPGTPLTLTCSVSGIDLSGYYMNWVRQAPGKGLEWIGVIGINGATYYASWAKGRFTISKTSSTTVDLKMTSLTTEDTATYFCARGDIWGPGTLVTVSS
# VL: QVLTQTPSPVSAAVGSTVTINCQASQSVYHNTYLAWYQQKPGQPPKQLIYDASTLASGVPSRFSGSGSGTQFTLTISGVQCNDAAAYYCLGSYDCTNGDCFVFGGGTEVVVKR
# B3: Antibody Ab11 (antibody, human IgG1, kappa, N297A, V domains shown)
# VH: QSLEESGGRLVTPGGSLTLTCTVSGIDVTNYYMQWVRQAPGKGLEWIGVIGVNGKRYYASWAKGRFTISKTSSTTVDLKMTSLTTEDTATYFCARGDIWGPGTLVTVSS
# VL: QVLTQTASPVSPAVGSTVTINCRASQSVYYNNYLAWYQQKPGQPPKQLIYSTSTLASGVSSRFKGSGSGTQFTLTISDVQCDDAATYYCLGSYDCSNGDCFVFGGGTEVVVKR
# notes: Chimeric anti-CGRP antibody, full length
# B4: Antibody Ab9 (antibody, human IgG1, kappa, N297A, V domains shown)
# VH: QSLEESGGRLVTPGTPLTLTCTVSGIGLSSYYMQWVRQSPGRGLEWIGVIGSDGKTYYATWAKGRFTISKTSSTTVDLRMASLTTEDTATYFCTRGDIWGPGTLVTVSS
# VL: QVLTQTPSPVSAAVGSTVTINCQASQNVYNNNYLAWYQQKPGQPPKQLIYSTSTLASGVSSRFRGSGSGTQFTLTISDVQCDDAATYYCLGSYDCSRGDCFVFGGGTEVVVKR
# notes: as for B3
# B5: Antibody Ab7 (antibody, human IgG1, kappa, N297A, V domains shown)
# VH: QEQLKESGGRLVTPGTSLTLTCTVSGIDLSNHYMQWVRQAPGKGLEWIGVVGINGRTYYASWAKGRFTISRTSSTTVDLKMTRLTTEDTATYFCARGDIWGPGTLVTVSS
# VL: QVLTQTASPVSAAVGSTVTINCQASQSVYNYNYLAWYQQKPGQPPKQLIYSTSTLASGVSSRFKGSGSGTQFTLTISDVQCDDAATYYCLGSYDCSTGDCFVFGGGTEVVVKR
# notes: as for B3
# B6: Antibody Ab2 (antibody, human IgG1, kappa, N297A)
# heavy: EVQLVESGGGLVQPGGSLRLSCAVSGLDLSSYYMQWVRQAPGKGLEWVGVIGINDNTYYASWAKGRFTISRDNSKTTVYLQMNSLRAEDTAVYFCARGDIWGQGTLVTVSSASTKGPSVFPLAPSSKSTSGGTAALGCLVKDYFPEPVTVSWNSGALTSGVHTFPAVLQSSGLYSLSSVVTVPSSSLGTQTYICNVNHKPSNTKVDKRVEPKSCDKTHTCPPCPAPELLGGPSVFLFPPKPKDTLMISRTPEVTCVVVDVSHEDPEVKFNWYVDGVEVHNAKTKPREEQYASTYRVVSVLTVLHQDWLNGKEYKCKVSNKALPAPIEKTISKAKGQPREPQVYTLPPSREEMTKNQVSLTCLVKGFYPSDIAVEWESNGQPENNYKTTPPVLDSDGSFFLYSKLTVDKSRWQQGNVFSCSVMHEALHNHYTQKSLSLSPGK
# light: QVLTQSPSSLSASVGDRVTINCQASQSVYDNNYLAWYQQKPGKVPKQLIYSTSTLASGVPSRFSGSGSGTDFTLTISSLQPEDVATYYCLGSYDCSSGDCFVFGGGTKVEIKRTVAAPSVFIFPPSDEQLKSGTASVVCLLNNFYPREAKVQWKVDNALQSGNSQESVTEQDSKDSTYSLSSTLTLSKADYEKHKVYACEVTHQGLSSPVTKSFNRGEC
# notes: Humanized anti-CGRP antibody, full length
# B7: Antibody Ab8 (antibody, human IgG1, kappa, N297A, V domains shown)
# VH: EVQLVESGGGLVQPGGSLRLSCAVSGIDLSNHYMQWVRQAPGKGLEWVGVVGINGRTYYASWAKGRFTISRDNSKTTVYLQMNSLRAEDTAVYFCARGDIWGQGTLVTVSS
# VL: QVLTQSPSSLSASVGDRVTINCQASQSVYNYNYLAWYQQKPGKVPKQLIYSTSTLASGVPSRFSGSGSGTDFTLTISSLQPEDVATYYCLGSYDCSTGDCFVFGGGTKVEIKR
# notes: as for B6
# B8: Antibody Ab3 (antibody, human IgG1, kappa, N297A)
# heavy: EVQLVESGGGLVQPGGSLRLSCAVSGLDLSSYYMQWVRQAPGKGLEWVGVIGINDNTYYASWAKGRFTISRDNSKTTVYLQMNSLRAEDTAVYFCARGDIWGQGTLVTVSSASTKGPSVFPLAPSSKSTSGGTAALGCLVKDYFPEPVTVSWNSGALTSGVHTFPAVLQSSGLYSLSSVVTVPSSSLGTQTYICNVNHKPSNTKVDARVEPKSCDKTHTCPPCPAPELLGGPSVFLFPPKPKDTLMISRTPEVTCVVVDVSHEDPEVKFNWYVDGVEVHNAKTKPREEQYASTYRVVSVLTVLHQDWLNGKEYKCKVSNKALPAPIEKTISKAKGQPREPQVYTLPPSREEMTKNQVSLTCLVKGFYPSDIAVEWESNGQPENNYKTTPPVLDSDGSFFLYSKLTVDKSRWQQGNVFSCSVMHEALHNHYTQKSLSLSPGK
# light: QVLTQSPSSLSASVGDRVTINCQASQSVYDNNYLAWYQQKPGKVPKQLIYSTSTLASGVPSRFSGSGSGTDFTLTISSLQPEDVATYYCLGSYDCSSGDCFVFGGGTKVEIKRTVAAPSVFIFPPSDEQLKSGTASVVCLLNNFYPREAKVQWKVDNALQSGNSQESVTEQDSKDSTYSLSSTLTLSKADYEKHKVYACEVTHQGLSSPVTKSFNRGEC
# B9: Antibody Ab10 (antibody, human IgG1, kappa, N297A)
# heavy: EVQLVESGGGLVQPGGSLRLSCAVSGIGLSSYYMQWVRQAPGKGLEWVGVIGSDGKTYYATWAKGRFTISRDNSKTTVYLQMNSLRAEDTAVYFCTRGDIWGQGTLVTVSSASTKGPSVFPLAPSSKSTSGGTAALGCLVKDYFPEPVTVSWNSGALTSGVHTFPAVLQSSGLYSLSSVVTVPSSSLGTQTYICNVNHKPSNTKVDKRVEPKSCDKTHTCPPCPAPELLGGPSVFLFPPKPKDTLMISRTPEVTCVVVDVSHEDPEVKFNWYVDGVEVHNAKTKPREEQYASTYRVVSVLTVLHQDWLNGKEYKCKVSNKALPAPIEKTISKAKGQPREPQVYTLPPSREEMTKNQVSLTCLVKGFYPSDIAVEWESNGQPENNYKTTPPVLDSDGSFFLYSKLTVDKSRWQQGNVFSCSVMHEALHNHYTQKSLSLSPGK
# light: QVLTQSPSSLSASVGDRVTINCQASQNVYNNNYLAWYQQKPGKVPKQLIYSTSTLASGVPSRFSGSGSGTDFTLTISSLQPEDVATYYCLGSYDCSRGDCFVFGGGTKVEIKRTVAAPSVFIFPPSDEQLKSGTASVVCLLNNFYPREAKVQWKVDNALQSGNSQESVTEQDSKDSTYSLSSTLTLSKADYEKHKVYACEVTHQGLSSPVTKSFNRGEC
# notes: as for B6
# B10: Antibody Ab6 (antibody, human IgG1, kappa, N297A)
# heavy: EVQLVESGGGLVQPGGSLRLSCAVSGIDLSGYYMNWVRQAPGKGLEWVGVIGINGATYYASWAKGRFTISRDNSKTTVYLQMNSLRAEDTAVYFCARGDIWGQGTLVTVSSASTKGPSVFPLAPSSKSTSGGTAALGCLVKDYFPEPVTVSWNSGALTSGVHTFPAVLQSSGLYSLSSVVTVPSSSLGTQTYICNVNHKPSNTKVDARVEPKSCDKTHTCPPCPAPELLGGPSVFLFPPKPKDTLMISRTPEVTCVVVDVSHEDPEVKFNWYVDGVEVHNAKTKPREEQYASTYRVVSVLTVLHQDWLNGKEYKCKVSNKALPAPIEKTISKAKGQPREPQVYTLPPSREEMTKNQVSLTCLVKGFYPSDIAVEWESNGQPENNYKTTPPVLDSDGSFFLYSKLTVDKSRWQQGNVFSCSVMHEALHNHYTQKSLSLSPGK
# light: QVLTQSPSSLSASVGDRVTINCQASQSVYHNTYLAWYQQKPGKVPKQLIYDASTLASGVPSRFSGSGSGTDFTLTISSLQPEDVATYYCLGSYDCTNGDCFVFGGGTKVEIKRTVAAPSVFIFPPSDEQLKSGTASVVCLLNNFYPREAKVQWKVDNALQSGNSQESVTEQDSKDSTYSLSSTLTLSKADYEKHKVYACEVTHQGLSSPVTKSFNRGEC
# notes: as for B6
# B11: Antibody Ab5 (antibody, human IgG1, kappa, N297A)
# heavy: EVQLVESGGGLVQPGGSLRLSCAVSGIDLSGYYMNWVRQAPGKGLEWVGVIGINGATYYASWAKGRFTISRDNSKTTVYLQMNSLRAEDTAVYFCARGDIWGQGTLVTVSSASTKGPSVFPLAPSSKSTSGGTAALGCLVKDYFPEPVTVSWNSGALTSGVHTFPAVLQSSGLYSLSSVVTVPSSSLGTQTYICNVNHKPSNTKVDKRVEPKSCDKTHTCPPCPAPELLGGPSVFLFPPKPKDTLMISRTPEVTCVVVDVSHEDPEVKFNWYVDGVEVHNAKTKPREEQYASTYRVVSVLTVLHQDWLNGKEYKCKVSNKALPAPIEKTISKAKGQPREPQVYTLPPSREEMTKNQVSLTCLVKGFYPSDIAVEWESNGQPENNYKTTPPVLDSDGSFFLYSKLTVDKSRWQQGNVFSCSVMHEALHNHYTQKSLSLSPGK
# light: QVLTQSPSSLSASVGDRVTINCQASQSVYHNTYLAWYQQKPGKVPKQLIYDASTLASGVPSRFSGSGSGTDFTLTISSLQPEDVATYYCLGSYDCTNGDCFVFGGGTKVEIKRTVAAPSVFIFPPSDEQLKSGTASVVCLLNNFYPREAKVQWKVDNALQSGNSQESVTEQDSKDSTYSLSSTLTLSKADYEKHKVYACEVTHQGLSSPVTKSFNRGEC
# B12: Antibody Ab14 (antibody, human IgG1, kappa, N297A)
# heavy: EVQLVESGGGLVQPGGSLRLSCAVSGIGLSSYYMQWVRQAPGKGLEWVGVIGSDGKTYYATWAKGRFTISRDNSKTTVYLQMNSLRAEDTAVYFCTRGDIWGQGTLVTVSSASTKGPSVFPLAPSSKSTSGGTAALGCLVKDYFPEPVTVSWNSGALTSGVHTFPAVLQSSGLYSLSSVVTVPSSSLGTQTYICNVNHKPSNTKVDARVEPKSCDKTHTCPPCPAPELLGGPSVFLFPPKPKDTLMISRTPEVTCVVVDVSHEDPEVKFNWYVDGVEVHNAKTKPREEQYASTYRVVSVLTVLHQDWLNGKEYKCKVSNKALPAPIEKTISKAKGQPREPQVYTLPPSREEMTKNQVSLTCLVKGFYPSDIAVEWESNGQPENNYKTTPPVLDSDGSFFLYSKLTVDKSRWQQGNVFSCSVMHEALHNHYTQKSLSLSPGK
# light: QVLTQSPSSLSASVGDRVTINCQASQNVYNNNYLAWYQQKPGKVPKQLIYSTSTLASGVPSRFSGSGSGTDFTLTISSLQPEDVATYYCLGSYDCSRGDCFVFGGGTKVEIKRTVAAPSVFIFPPSDEQLKSGTASVVCLLNNFYPREAKVQWKVDNALQSGNSQESVTEQDSKDSTYSLSSTLTLSKADYEKHKVYACEVTHQGLSSPVTKSFNRGEC
# notes: as for B6
# B13: Antibody Ab12 (antibody, human IgG1, kappa, N297A, V domains shown)
# VH: EVQLVESGGGLVQPGGSLRLSCAVSGIDVTNYYMQWVRQAPGKGLEWVGVIGVNGKRYYASWAKGRFTISRDNSKTTVYLQMNSLRAEDTAVYFCARGDIWGQGTLVTVSS
# VL: QVLTQSPSSLSASVGDRVTINCRASQSVYYNNYLAWYQQKPGKVPKQLIYSTSTLASGVPSRFSGSGSGTDFTLTISSLQPEDVATYYCLGSYDCSNGDCFVFGGGTKVEIKR
# notes: as for B6
# Target: T1, human Calcitonin Gene Related Peptide …
# Experiment: ELISA, plates coated with CGRPα, anti-human IgG Fc-HRP detection
# Protocol: To characterize recombinant expressed antibodies for their ability to bind to human-CGRPα, antibody-containing solutions were tested by ELISA. All incubations were done at room temperature. Briefly, Immulon IV plagtes (Thermo Scientific), were coated with a CGRPα containing solution (1 ut/mL in PBS) for 2 hours. CGRPα-coated plates were then washed three times in wash buffer (PBS, 0.05% Tween-20). The plates were then blocked using a blocking solution (PBS, 0.5% fish skin gelatin, 0.05% Tween-20) for approximately one hour. The blocking solution was then removed and the plates were then incubated with a dilution series of the antibody being tested for approximately one hour. At the end of this incubation, the plate was washed three times with wash buffer and further incubated with a secondary antibody containing solution (Peroxidase conjugated affinipure F(ab′)2 fragment goat anti-human IgG, Fc fragment specific (Jackson Immunoresearch) for approximately 45 minutes and washed three times. At that point a substrate solution (TMB peroxidase substrate, BioFx) and incubated for 3 to 5 minutes in the dark. The reaction was stopped by addition of a HCl containing solution (0.5M) and the plate was read at 450 nm in a plate-reader.
row,Binder,binding result
1,B1,binds
2,B2,binds
3,B3,binds
4,B4,binds
5,B5,binds
6,B6,binds
7,B7,binds
8,B8,binds
9,B9,binds
10,B10,binds
11,B11,binds
12,B12,binds
13,B13,binds
